According to patent US20200199241A1 (Chugai, published 2020):

T1: human FcγRIIa(H) (human, UniProt P12318 36-217)
T1 construct: also called FcgRIIaH; hFcgRIIa(H)
T1 sequence: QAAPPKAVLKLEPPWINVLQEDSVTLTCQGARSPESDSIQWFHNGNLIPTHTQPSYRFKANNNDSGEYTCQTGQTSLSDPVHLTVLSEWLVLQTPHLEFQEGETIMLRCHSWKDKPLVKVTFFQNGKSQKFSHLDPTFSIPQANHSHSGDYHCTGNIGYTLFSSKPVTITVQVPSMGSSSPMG

T2: human FcγRIIa(R) (human, UniProt P12318 36-217)
T2 construct: also called FcgRIIaR; hFcgRIIa(R)
T2 chain: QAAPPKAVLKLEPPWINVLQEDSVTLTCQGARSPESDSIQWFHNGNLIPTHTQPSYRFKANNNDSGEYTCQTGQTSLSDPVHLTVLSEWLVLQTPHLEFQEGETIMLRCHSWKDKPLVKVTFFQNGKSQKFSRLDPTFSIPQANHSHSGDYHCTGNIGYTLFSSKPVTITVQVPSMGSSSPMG

T3: human FcγRIIb (human, UniProt P31994 43-217, limits assumed)
T3 construct: also called FcgRIIb; hFcgRIIb
T3 sequence: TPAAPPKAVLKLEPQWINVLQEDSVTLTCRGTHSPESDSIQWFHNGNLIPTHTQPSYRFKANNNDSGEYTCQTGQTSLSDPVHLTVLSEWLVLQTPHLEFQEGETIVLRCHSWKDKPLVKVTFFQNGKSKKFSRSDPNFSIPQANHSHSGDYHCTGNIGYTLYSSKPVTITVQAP


Experiments:
Assay in all cases: SPR, captured antibody;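 also: antibody captured on a sensor chip, Fcγ receptor flowed over at 25 °C, receptor binding normalized to the captured antibody amount and expressed relative to the reference antibody ×100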
human FcγRIa = molecular target: T4, human FcγRIa (human, UniProt P12314 16-292, limits assumed)
T4 construct: also called FcgRIa; hFcgRIa

human FcγRIIa(H) = molecular target: T1, human FcγRIIa(H)
human FcγRIIa(R) = molecular target: T2, human FcγRIIa(R)
human FcγRIIb = molecular target: T3, human FcγRIIb

T4 sequence (P12314 16-292 limits assumed): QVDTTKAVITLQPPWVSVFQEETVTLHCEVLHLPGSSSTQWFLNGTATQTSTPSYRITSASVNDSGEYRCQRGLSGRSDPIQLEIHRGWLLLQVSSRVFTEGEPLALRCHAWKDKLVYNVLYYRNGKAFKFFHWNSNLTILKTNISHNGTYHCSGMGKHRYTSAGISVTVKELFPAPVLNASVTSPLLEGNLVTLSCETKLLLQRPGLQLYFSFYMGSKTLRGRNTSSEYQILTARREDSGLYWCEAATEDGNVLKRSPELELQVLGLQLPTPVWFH

| Binder | relative binding activity (human FcγRIa) | relative binding activity (human FcγRIIa(H)) | relative binding activity (human FcγRIIa(R)) | relative binding activity (human FcγRIIb) |
| --- | --- | --- | --- | --- |
| GpH7-B3 N325A/GpL16-k0 (antibody, human IgG1, B3 variant; copies: 2 + 2) heavy: not shown light: DIVMTQSPLSLPVTPGEPASISCQASESLVHSNRNTYLHWYLQKPGQSPQLLIYKVSNRFSGVPDRFSGSGSGTDFTLKISRVEAEDVGVYYCSQNTHVPPTFGQGTKVEIE | 94 % of GpH7-B3/GpL16-k0 | 14 % of GpH7-B3/GpL16-k0 | 38 % of GpH7-B3/GpL16-k0 | 27 % of GpH7-B3/GpL16-k0 |
| GpH7-B3 P271W/GpL16-k0 (antibody, human IgG1, B3 variant; copies: 2 + 2) heavy: not shown light: DIVMTQSPLSLPVTPGEPASISCQASESLVHSNRNTYLHWYLQKPGQSPQLLIYKVSNRFSGVPDRFSGSGSGTDFTLKISRVEAEDVGVYYCSQNTHVPPTFGQGTKVEIE | 100 % of GpH7-B3/GpL16-k0 | 75 % of GpH7-B3/GpL16-k0 | 46 % of GpH7-B3/GpL16-k0 | 33 % of GpH7-B3/GpL16-k0 |
| GpH7-B3 P271R/GpL16-k0 (antibody, human IgG1, B3 variant; copies: 2 + 2) heavy: not shown light: DIVMTQSPLSLPVTPGEPASISCQASESLVHSNRNTYLHWYLQKPGQSPQLLIYKVSNRFSGVPDRFSGSGSGTDFTLKISRVEAEDVGVYYCSQNTHVPPTFGQGTKVEIE | 100 % of GpH7-B3/GpL16-k0 | 99 % of GpH7-B3/GpL16-k0 | 89 % of GpH7-B3/GpL16-k0 | 87 % of GpH7-B3/GpL16-k0 |
| GpH7-B3 P329E/GpL16-k0 (antibody, human IgG1, B3 variant; copies: 2 + 2) heavy: not shown light: DIVMTQSPLSLPVTPGEPASISCQASESLVHSNRNTYLHWYLQKPGQSPQLLIYKVSNRFSGVPDRFSGSGSGTDFTLKISRVEAEDVGVYYCSQNTHVPPTFGQGTKVEIE | 33 % of GpH7-B3/GpL16-k0 | 0 % of GpH7-B3/GpL16-k0 | -1 % of GpH7-B3/GpL16-k0 | -2 % of GpH7-B3/GpL16-k0 |
| GpH7-B3 P271H/GpL16-k0 (antibody, human IgG1, B3 variant; copies: 2 + 2) heavy: not shown light: DIVMTQSPLSLPVTPGEPASISCQASESLVHSNRNTYLHWYLQKPGQSPQLLIYKVSNRFSGVPDRFSGSGSGTDFTLKISRVEAEDVGVYYCSQNTHVPPTFGQGTKVEIE | 98 % of GpH7-B3/GpL16-k0 | 58 % of GpH7-B3/GpL16-k0 | 58 % of GpH7-B3/GpL16-k0 | 53 % of GpH7-B3/GpL16-k0 |
| GpH7-B3 P271T/GpL16-k0 (antibody, human IgG1, B3 variant; copies: 2 + 2) heavy: not shown light: DIVMTQSPLSLPVTPGEPASISCQASESLVHSNRNTYLHWYLQKPGQSPQLLIYKVSNRFSGVPDRFSGSGSGTDFTLKISRVEAEDVGVYYCSQNTHVPPTFGQGTKVEIE | 98 % of GpH7-B3/GpL16-k0 | 42 % of GpH7-B3/GpL16-k0 | 73 % of GpH7-B3/GpL16-k0 | 78 % of GpH7-B3/GpL16-k0 |
| GpH7-B3 N325H/GpL16-k0 (antibody, human IgG1, B3 variant; copies: 2 + 2) heavy: not shown light: DIVMTQSPLSLPVTPGEPASISCQASESLVHSNRNTYLHWYLQKPGQSPQLLIYKVSNRFSGVPDRFSGSGSGTDFTLKISRVEAEDVGVYYCSQNTHVPPTFGQGTKVEIE | 93 % of GpH7-B3/GpL16-k0 | 13 % of GpH7-B3/GpL16-k0 | 34 % of GpH7-B3/GpL16-k0 | 27 % of GpH7-B3/GpL16-k0 |
| GpH7-B3 P271Y/GpL16-k0 (antibody, human IgG1, B3 variant; copies: 2 + 2) heavy: not shown light: DIVMTQSPLSLPVTPGEPASISCQASESLVHSNRNTYLHWYLQKPGQSPQLLIYKVSNRFSGVPDRFSGSGSGTDFTLKISRVEAEDVGVYYCSQNTHVPPTFGQGTKVEIE | 98 % of GpH7-B3/GpL16-k0 | 48 % of GpH7-B3/GpL16-k0 | 38 % of GpH7-B3/GpL16-k0 | 28 % of GpH7-B3/GpL16-k0 |
| GpH7-B3 N325W/GpL16-k0 (antibody, human IgG1, B3 variant; copies: 2 + 2) heavy: not shown light: DIVMTQSPLSLPVTPGEPASISCQASESLVHSNRNTYLHWYLQKPGQSPQLLIYKVSNRFSGVPDRFSGSGSGTDFTLKISRVEAEDVGVYYCSQNTHVPPTFGQGTKVEIE | 94 % of GpH7-B3/GpL16-k0 | 4 % of GpH7-B3/GpL16-k0 | 55 % of GpH7-B3/GpL16-k0 | 48 % of GpH7-B3/GpL16-k0 |
| GpH7-B3 P271F/GpL16-k0 (antibody, human IgG1, B3 variant; copies: 2 + 2) heavy: not shown light: DIVMTQSPLSLPVTPGEPASISCQASESLVHSNRNTYLHWYLQKPGQSPQLLIYKVSNRFSGVPDRFSGSGSGTDFTLKISRVEAEDVGVYYCSQNTHVPPTFGQGTKVEIE | 99 % of GpH7-B3/GpL16-k0 | 55 % of GpH7-B3/GpL16-k0 | 49 % of GpH7-B3/GpL16-k0 | 38 % of GpH7-B3/GpL16-k0 |
| GpH7-B3 N325R/GpL16-k0 (antibody, human IgG1, B3 variant; copies: 2 + 2) heavy: not shown light: DIVMTQSPLSLPVTPGEPASISCQASESLVHSNRNTYLHWYLQKPGQSPQLLIYKVSNRFSGVPDRFSGSGSGTDFTLKISRVEAEDVGVYYCSQNTHVPPTFGQGTKVEIE | 56 % of GpH7-B3/GpL16-k0 | 1 % of GpH7-B3/GpL16-k0 | 0 % of GpH7-B3/GpL16-k0 | 0 % of GpH7-B3/GpL16-k0 |
| GpH7-B3 N325K/GpL16-k0 (antibody, human IgG1, B3 variant; copies: 2 + 2) heavy: not shown light: DIVMTQSPLSLPVTPGEPASISCQASESLVHSNRNTYLHWYLQKPGQSPQLLIYKVSNRFSGVPDRFSGSGSGTDFTLKISRVEAEDVGVYYCSQNTHVPPTFGQGTKVEIE | 55 % of GpH7-B3/GpL16-k0 | 0 % of GpH7-B3/GpL16-k0 | 0 % of GpH7-B3/GpL16-k0 | -1 % of GpH7-B3/GpL16-k0 |
| GpH7-B3 P329D/GpL16-k0 (antibody, human IgG1, B3 variant; copies: 2 + 2) heavy: not shown light: DIVMTQSPLSLPVTPGEPASISCQASESLVHSNRNTYLHWYLQKPGQSPQLLIYKVSNRFSGVPDRFSGSGSGTDFTLKISRVEAEDVGVYYCSQNTHVPPTFGQGTKVEIE | 23 % of GpH7-B3/GpL16-k0 | -1 % of GpH7-B3/GpL16-k0 | -1 % of GpH7-B3/GpL16-k0 | -2 % of GpH7-B3/GpL16-k0 |
| GpH7-B3 N325T/GpL16-k0 (antibody, human IgG1, B3 variant; copies: 2 + 2) heavy: not shown light: DIVMTQSPLSLPVTPGEPASISCQASESLVHSNRNTYLHWYLQKPGQSPQLLIYKVSNRFSGVPDRFSGSGSGTDFTLKISRVEAEDVGVYYCSQNTHVPPTFGQGTKVEIE | 98 % of GpH7-B3/GpL16-k0 | 27 % of GpH7-B3/GpL16-k0 | 59 % of GpH7-B3/GpL16-k0 | 49 % of GpH7-B3/GpL16-k0 |
| GpH7-B3 N325Y/GpL16-k0 (antibody, human IgG1, B3 variant; copies: 2 + 2) heavy: not shown light: DIVMTQSPLSLPVTPGEPASISCQASESLVHSNRNTYLHWYLQKPGQSPQLLIYKVSNRFSGVPDRFSGSGSGTDFTLKISRVEAEDVGVYYCSQNTHVPPTFGQGTKVEIE | 92 % of GpH7-B3/GpL16-k0 | 9 % of GpH7-B3/GpL16-k0 | 42 % of GpH7-B3/GpL16-k0 | 39 % of GpH7-B3/GpL16-k0 |
| GpH7-B3 N325G/GpL16-k0 (antibody, human IgG1, B3 variant; copies: 2 + 2) heavy: not shown light: DIVMTQSPLSLPVTPGEPASISCQASESLVHSNRNTYLHWYLQKPGQSPQLLIYKVSNRFSGVPDRFSGSGSGTDFTLKISRVEAEDVGVYYCSQNTHVPPTFGQGTKVEIE | 95 % of GpH7-B3/GpL16-k0 | 7 % of GpH7-B3/GpL16-k0 | 26 % of GpH7-B3/GpL16-k0 | 22 % of GpH7-B3/GpL16-k0 |
| GpH7-B3 P271S/GpL16-k0 (antibody, human IgG1, B3 variant; copies: 2 + 2) heavy: not shown light: DIVMTQSPLSLPVTPGEPASISCQASESLVHSNRNTYLHWYLQKPGQSPQLLIYKVSNRFSGVPDRFSGSGSGTDFTLKISRVEAEDVGVYYCSQNTHVPPTFGQGTKVEIE | 99 % of GpH7-B3/GpL16-k0 | 67 % of GpH7-B3/GpL16-k0 | 83 % of GpH7-B3/GpL16-k0 | 82 % of GpH7-B3/GpL16-k0 |
| GpH7-B3 N325P/GpL16-k0 (antibody, human IgG1, B3 variant; copies: 2 + 2) heavy: not shown light: DIVMTQSPLSLPVTPGEPASISCQASESLVHSNRNTYLHWYLQKPGQSPQLLIYKVSNRFSGVPDRFSGSGSGTDFTLKISRVEAEDVGVYYCSQNTHVPPTFGQGTKVEIE | 50 % of GpH7-B3/GpL16-k0 | 1 % of GpH7-B3/GpL16-k0 | 2 % of GpH7-B3/GpL16-k0 | 3 % of GpH7-B3/GpL16-k0 |
| GpH7-B3 N325F/GpL16-k0 (antibody, human IgG1, B3 variant; copies: 2 + 2) heavy: not shown light: DIVMTQSPLSLPVTPGEPASISCQASESLVHSNRNTYLHWYLQKPGQSPQLLIYKVSNRFSGVPDRFSGSGSGTDFTLKISRVEAEDVGVYYCSQNTHVPPTFGQGTKVEIE | 92 % of GpH7-B3/GpL16-k0 | 6 % of GpH7-B3/GpL16-k0 | 65 % of GpH7-B3/GpL16-k0 | 72 % of GpH7-B3/GpL16-k0 |
| GpH7-B3 N325V/GpL16-k0 (antibody, human IgG1, B3 variant; copies: 2 + 2) heavy: not shown light: DIVMTQSPLSLPVTPGEPASISCQASESLVHSNRNTYLHWYLQKPGQSPQLLIYKVSNRFSGVPDRFSGSGSGTDFTLKISRVEAEDVGVYYCSQNTHVPPTFGQGTKVEIE | 84 % of GpH7-B3/GpL16-k0 | 9 % of GpH7-B3/GpL16-k0 | 37 % of GpH7-B3/GpL16-k0 | 35 % of GpH7-B3/GpL16-k0 |
